The text below walks through data of the supplement of paper PMC10724198.

± gives the standard deviation of the averaged measurements.
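Note: PSI is a weighted mean of sequencing reads over stability bins, variants kept only with over 10 reads, mCherry proximal and sfGFP distal, peptide attached via GGGS linker.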

This data set has as its system Saccharomyces cerevisiae. The data set can be described thus: protein stability index of tFT-peptide fusion (C-terminal peptide) (PSI (0-1 scale)); higher = more stable (slower turnover). The following applies: genetic background: wild type; temperature: 30 C.
Take LGACGWVDWWGL: the protein stability index amounted to 0.774 ± 0.0083.

LGARGAGAPAPG came in with a protein stability index of 0.7286 ± 0.0037.

For the sequence LGCKGQLFWYIW, the protein stability index amounted to 0.6327 ± 0.003.

For LGCLHRLLGVRL, the protein stability index was 0.752 ± 0.048.

LGCLRLVPSPPG had a protein stability index of 0.757 ± 0.1.

In turn, LGCVLGLLVFGG showed a protein stability index of 0.601 ± 0.041.

Sequence LGFQSRTTRCCG displayed a protein stability index of 0.6685 ± 0.0014.

Sequence LGFRCLGRGPDH showed a protein stability index of 0.644 ± 0.033.

For the sequence LGFSDIMSSLVV, the protein stability index worked out at 0.801 ± 0.16.

LGGGCVRCVFMW: the protein stability index is 0.637 ± 0.039.

Turning to LGGGGLRSRGAG, the protein stability index is 0.785 ± 0.21.

The sequence LGGGGRWVVPGA came in with a protein stability index of 0.722 ± 0.029.

On to LGGGPTGARPAM, for which the protein stability index is 0.782 ± 0.078.

For the sequence LGIEFGVADVGL, the protein stability index was determined as 0.786 ± 0.054.

The sequence LGIRFPLSNELI showed a protein stability index of 0.867 ± 0.15.

LGKIYPFYSILL had a protein stability index of 0.7038 ± 0.002.

In turn, LGLCSFGCERCH displayed a protein stability index of 0.704 ± 0.015.

Sequence LGLLGSLRTLSF yielded a protein stability index of 0.667 ± 0.14.

LGLSCTIFPIGI showed a protein stability index of 0.679 ± 0.018.

In turn, LGLYNRFSMFGS came in with a protein stability index of 0.645 ± 0.026.

For the sequence LGQAVGAVGVEV, the protein stability index was determined as 0.64 ± 0.072.

Turning to LGRFRLSRREGG, the protein stability index came to 0.6706 ± 0.0043.

The sequence LGRPRRGGGVSG yielded a protein stability index of 0.6998 ± 0.0012.

Consider LGRRGVVRVSPR, for which the protein stability index amounted to 0.687 ± 0.052.

For the sequence LGSNLVCFLCVS, the protein stability index was 0.566 ± 0.053.

For LGSRSGPLFPCV, the protein stability index was 0.655 ± 0.015.

LGTGRGAEGVIG: the protein stability index worked out at 0.791 ± 0.071.

Take LGTILGWFSICT: the protein stability index is 0.59 ± 0.007.

In turn, LGVFAVGGVRLG displayed a protein stability index of 0.668 ± 0.008.

Take LGVGGLRSRGAG: the protein stability index was 0.74 ± 0.2.

LGVGGRWGVPGA came in with a protein stability index of 0.715 ± 0.04.

As for LGWGRGGPLSGG, the protein stability index turned out to be 0.6937 ± 0.0018.

For LGWWGVWSWGRG, the protein stability index was 0.655 ± 0.033.

With LHDICADRSSIL, the protein stability index was 0.739 ± 0.009.

The sequence LHFYASFPSPLV came in with a protein stability index of 0.669 ± 0.044.

LHGASLCVPPSP came in with a protein stability index of 0.5205 ± 0.0013.

LHKAATADPPRV yielded a protein stability index of 0.711 ± 0.02.

In turn, LHKSINPSPHPP returned a protein stability index of 0.6864 ± 0.0066.

Sequence LHLGRLVHGGVD returned a protein stability index of 0.673 ± 0.017.

In turn, LHLPPPLPSTLP had a protein stability index of 0.671 ± 0.012.

For LHPPLALPRPPP, the protein stability index amounted to 0.711 ± 0.05.

Regarding LHPPPPPPALTP, the protein stability index was 0.729 ± 0.068.

Regarding LHRTKHLRKGHK, the protein stability index worked out at 0.6905 ± 0.0033.

For LIGTAPGITGFN, the protein stability index was found to be 0.661 ± 0.011.

LISADTFVHFND registered a protein stability index of 0.725 ± 0.02.

In turn, LISRLVSSLIHT displayed a protein stability index of 0.621 ± 0.015.

For the sequence LITRLLCSPCSQ, the protein stability index was 0.605 ± 0.0059.

Consider LKDLGKQVVTVR, for which the protein stability index was found to be 0.587 ± 0.0062.

LKFLFTYLGFLS gave a protein stability index of 0.532 ± 0.03.

With LKGVVRFISGQD, the protein stability index came to 0.71735 ± 0.00052.

In the case of LKKDVYANNLTD, the protein stability index amounted to 0.673 ± 0.004.

LKKEFSGKEIQD: the protein stability index is 0.743 ± 0.049.

Sequence LKKSYSTPFTHY had a protein stability index of 0.69 ± 0.048.

LKLTFPFWNTGT had a protein stability index of 0.728 ± 0.034.

As to LKNGDINYARFG, the protein stability index came out at 0.679 ± 0.083.

With LKQTNQHKVNTD, the protein stability index came to 0.643 ± 0.053.

Take LKRDLGGTSTRG: the protein stability index came to 0.6615 ± 0.0057.

Take LKRGKIVDRGWY: the protein stability index came to 0.641 ± 0.082.

In turn, LKRMQKYIDMSS yielded a protein stability index of 0.714 ± 0.11.

Take LKSYHKLKTCSS: the protein stability index is 0.678 ± 0.061.

LKTLKHRLRHLE had a protein stability index of 0.732 ± 0.034.

Consider LLAFRTVSVGVL, for which the protein stability index was found to be 0.5212 ± 0.0014.

Turning to LLCLRGRVTLCP, the protein stability index is 0.537 ± 0.031.

The sequence LLDVFFPRFFCH returned a protein stability index of 0.611 ± 0.078.

As for LLFDQTRIGMDV, the protein stability index worked out at 0.675 ± 0.038.

As to LLFISPPPRCLL, the protein stability index came to 0.75 ± 0.036.

In the case of LLFPFLSFLLPL, the protein stability index came to 0.66 ± 0.037.

Turning to LLFRCGARSAGG, the protein stability index worked out at 0.676 ± 0.022.

LLGLVGGVVGLA returned a protein stability index of 0.624 ± 0.01.

For LLGPSGRAIKIQ, the protein stability index came out at 0.6659 ± 0.0013.

For LLHCPSRGFLFS, the protein stability index was 0.851 ± 0.17.

As to LLHQSRSQVSFY, the protein stability index came out at 0.717 ± 0.093.

LLILGTPKQDSR yielded a protein stability index of 0.67 ± 0.036.

In the case of LLKGPDLLGRAS, the protein stability index is 0.721 ± 0.051.

LLLALPSRPPPS gave a protein stability index of 0.666 ± 0.13.

In turn, LLLPNPTPPPPP showed a protein stability index of 0.625 ± 0.0012.

Consider LLLPPPVFPPSL, for which the protein stability index was determined as 0.683 ± 0.01.

In turn, LLLWCRGGLLGS yielded a protein stability index of 0.753 ± 0.024.

LLPAPLPTALPL showed a protein stability index of 0.65 ± 0.07.

LLPAPPRLLPSS displayed a protein stability index of 0.68 ± 0.024.
